# Laboratory results as given in US20070172470A1, “Phosphatase regulation of nucleic acid transcription” (The Regents of the University of California, priority 2003, published 2007).
# B1: SCP1: small CTD phosphatase-1, full-length 261 aa human protein, SEQ ID NO:2 (protein, listed as Homo sapiens)
# chain: MDSSAVITQISKEEARGPLRGKGDQKSAASQKPRSRGILHSLFCCVCRDDGEALPAHSGAPLLVEENGAIPKTPVQYLLPEAKAQDSDKICVVIDLDETLVHSSFKPVNNADFIIPVEIDGVVHQVYVLKRPHVDEFLQRMGELFECVLFTASLAKYADPVADLLDKWGAFRARLFRESCVFHRGNYVKDLSRLGRDLRRVLILDNSPASYVFHPDNAVPVASWFDNMSDTELHDLLPFFEQLSRVDDVYSVLRQPRPGS
# Experiments:
# [1] = target: T1, RNAP IIO (Bos taurus, UniProt G3MZY8); assay: CTD phosphatase assay with RNAP IIO as substrate; format: biochemical, calf
# T1 construct: Calf thymus RNAP IIA was purified; from tissue; host or cells: calf thymus
# Description: FIGS. 2C and 2D show a CTD phosphatase assay of FCP1 and SCP1 on GST-CTDo and RNAP IIO prepared by MAPK2/ERK2. Increasing amounts of FCP1 or GST-SCP1 214 were assayed in the presence of 75 fmol GST-CTDo (lanes 1-6), 75 fmol RNAP IIO (lanes 7-12), or 75 fmol GST-CTDo and 75. fmol RNAP IIO (lanes 13-18). Both GST-CTDo and RNAP IIO substrates were prepared by the in vitro phosphorylation of CKII-labeled GST-CTDa or RNAP IIA by MAPK2/ERK2. All reactions were carried out in the presence of 7 pmol RAP74. CTD dephosphorylation of both GST-CTDo and RNAP IIO is shown by the increase in mobility of GST-CTDo to GST-CTDa and subunit IIo to IIa, respectively. The difference in the intensity of radiolabeled GST-CTDoand that of radiolabeled subunit IIo is not a reflection of a difference in the amount of substrates present, but of the higher efficiency with which CKII incorporates radiolabeled phosphates onto the most C-terminal serine of GST-CTDa compared to subunit. IIa.
# Increasing amounts of GST-SCP1 214 were assayed in the presence of 3.7 fmol RNAP IIO prepared by CTDK1/CTDK2, TFIIH, P-TEFb, MAPK2/ERK2 and Cdc2 kinase. All reactions were carried out in-the presence of 7 pmol. RAP74. CTD dephosphorylation of RNAP IIO isozymes. by qSTSCP1 214 is shown by an increase in mobility of subunit IIo to that of IIa. The results are summarized in the graph showing the percent of RNAP IIO remaining as a function of increasing SCP1 concentrations.
# Preparation and Purification of ^32P-RNAP IIO Isozymess and ^32P-GST-CTDo: Calf thymus RNAP IIA was purified by the method of Hodo and Blatti (30) with modifications as described by Kang and Dahmus (31). Specific isozymes of ^32p-labeled RNAP IIO were prepared by phosphorylation at the most C-terminal serine (CKII site) in the largest subunit of purified RNAP IIA with recombinant CKII and […], followed by CTD phosphorylation in the presence of 2 mM ATP with either purified CTDK1/CTDK2, TFIIH, P-TEFb, recombinant MAPK2/ERK2 or recombinant Cdc2 kinase. The RNAP IIO isozymes were individually purified over a DE53 column with a step elution of 500 mM KCl (28). Because only the most C-terminal serine is labeled with ^32p and lies outside. the consensus repeat, dephosphorylation by CTD phosphatase results in an electrophoretic mobility shift in SDS-PAGE of subunit IIo to the position of subunit IIa without the loss of label. Similarly, ^32P-labeled GST-CTDo was prepared from GST-CTDa by CKII followed by MAPK2/ERK2. GST-CTDo was purified over a glutathione-agarose column with a step elution of 15 mM glutathione.
# CTD phosphatase assays utilizing RNAP IIO and GST-CTDo as substrate were performed as described previously (32) with minor modifications. Reactions were performed in 20 μl of CTD phosphatase buffer (50 mM Tris-HCl, pH 7.9, 10 mM MgCl2, 20% glycerol, 0.025% Tween 80, 0.1 mM EDTA, 5 mM DTT) in the presence of 20 mM KCl. Each reaction contained specified amounts of GST-CTDo and/or RNAP IIO and was carried out in the presence of 7 pmol RAP74. Reactions were initiated by the addition of FCP1 or SCP1 and incubated at 30° C. for 30 minutes. Assays were terminated by the addition of 5× Laemmli buffer, and RNAP II subunits and GST-CTD were resolved on a 5% SDS-PAGE gel. The gel images were developed by autoradiography and scanned by Molecular Dynamics Image Scanner Storm 860 in the phosphor screen mode. Data were quantitatively analyzed by ImageQuant software.
# [2] = test system: 28 aa CTD heptad repeat peptide with Ser 5 phosphate or Ser 2 phosphate; assay: CTD phosphopeptide phosphatase assay (malachite green); format: biochemical; conditions: 25 μM phosphopeptide, 60 mins at 37° C.
# Description: The indicated amounts of. SCP1 were incubated with the phosphopeptide substrate and phosphate released was measured as described infra.
# N-terminal biotinylated CTD phosphopeptides, comprised of 4 tandem repeats YSPTSPS and containing phosphoserine at position 2 or position 5, were synthesized (Alpha Diagnostics, San Antonio, Tex.). Phosphatase reaction mixtures (50 μl) containing 50 mM Tris-acetate, pH 5.5, 10 mM MgCl2, 0.5 mM DTT, 10% glycerol, 25 μM of phosphopeptide and wild type or mutant SCP1 were incubated for 60 mins at 37° C. The reactions were quenched by adding 0.5 ml of malachite green (Biomol). Phosphate release was measured at A620 and quantified relative to a phosphate standard curve.
# [3] = test system: T3 receptor activity on DR+4 TRE-TK-Luc reporter; assay: Luciferase reporter assay, ligand-activated T3 receptor; format: cell-based, human; conditions: 100 nM T3, DR+4 TRE-TK-Luc
# Text: Gal4-DNA binding domain-SCP1 fusion protein expression plasmids-were cotransfected in HEK293 cells with a Gal 4-TKLuc reporter plasmid and luciferase gene expression quantitated. In all panels, results of triplicate transfections are shown +/− SD. Data is expressed as fold-activation experimental/control). […] The indicated amounts of SCP1 or mutant SCP1 expression plasmids were cotransfected in HEK293 cells along with Gal 4-VP16 expression and Gal 4-TK-Luc reporter plasmids and luciferase activity was quantitated. […] The indicated receptor expression plasmids were cotransfected with their cognate promoter-reporter plasmids with or without SCP1 or mutant SCP1 expression plasmids. Cells were treated or untreated with receptor-specific ligands as described infra. […] The indicated concentrations of SCP1 and mutant SCP1 expression plasmids were cotransfected with LMX1 and E47 expression plasmids and the rat insulin 1 promoter-luciferase reporter gene. Luciferase activity was measured as described.
# Tissue Culture and Transfections: Human 293, COS7 and CV1 cells were grown at 37° C. in DMEM supplemented with 10% normal calf serum (BRL). Sub-confluent cells were transfected in 6 well tissue culture dishes using Effectene (Qiagen) according to the manufacturer's instructions. Reporter and activator plasmids (100 ng each) and Flag SCP1 (80 ng) or its mutant were used per well. […]
# [4] = 3.7 fmol RNAP IIO, 7 pmol RAP74
molecule,measurement,setting,value
B1,dephosphorylation of RNAP IIO generated by Abl tyrosine kinase,[1],unable to dephosphorylate
same,dephosphorylation of RNAP IIO generated by TFIIH,[1]; [4],most efficiently dephosphorylates
same,dephosphorylation of RNAP IIO prepared with Cdc2 kinase,[1]; [4],unable to dephosphorylate
same,"dephosphorylation of RNAP IIO isozymes prepared with P-TEFb, MAPK2/ERK2 and CTDK1/CTDK2",[1]; relative to RNAP IIO prepared with TFIIH,reduced rate
same,dephosphorylation of Ser 5 versus Ser 2 phosphopeptide,[2],preferentially dephosphorylates the Ser 5 phosphopeptide
same,ligand-activated T3 receptor activity,[3],inhibited
